Target: MPP8 (M-phase phosphoprotein 8) (UniProt Q99549)
Assay: cross-linking; photo-crosslinking under UV-B irradiation of recombinant reader (3 or 10 uM CBX1, 5 uM BPTF, 3 uM MPP8) with sulfonium peptide (100 uM or various concentrations), 3 to 20 min; conjugates quantified by HR-MS

MPP8 (M-phase phosphoprotein 8), sequence (Q99549 whole entry): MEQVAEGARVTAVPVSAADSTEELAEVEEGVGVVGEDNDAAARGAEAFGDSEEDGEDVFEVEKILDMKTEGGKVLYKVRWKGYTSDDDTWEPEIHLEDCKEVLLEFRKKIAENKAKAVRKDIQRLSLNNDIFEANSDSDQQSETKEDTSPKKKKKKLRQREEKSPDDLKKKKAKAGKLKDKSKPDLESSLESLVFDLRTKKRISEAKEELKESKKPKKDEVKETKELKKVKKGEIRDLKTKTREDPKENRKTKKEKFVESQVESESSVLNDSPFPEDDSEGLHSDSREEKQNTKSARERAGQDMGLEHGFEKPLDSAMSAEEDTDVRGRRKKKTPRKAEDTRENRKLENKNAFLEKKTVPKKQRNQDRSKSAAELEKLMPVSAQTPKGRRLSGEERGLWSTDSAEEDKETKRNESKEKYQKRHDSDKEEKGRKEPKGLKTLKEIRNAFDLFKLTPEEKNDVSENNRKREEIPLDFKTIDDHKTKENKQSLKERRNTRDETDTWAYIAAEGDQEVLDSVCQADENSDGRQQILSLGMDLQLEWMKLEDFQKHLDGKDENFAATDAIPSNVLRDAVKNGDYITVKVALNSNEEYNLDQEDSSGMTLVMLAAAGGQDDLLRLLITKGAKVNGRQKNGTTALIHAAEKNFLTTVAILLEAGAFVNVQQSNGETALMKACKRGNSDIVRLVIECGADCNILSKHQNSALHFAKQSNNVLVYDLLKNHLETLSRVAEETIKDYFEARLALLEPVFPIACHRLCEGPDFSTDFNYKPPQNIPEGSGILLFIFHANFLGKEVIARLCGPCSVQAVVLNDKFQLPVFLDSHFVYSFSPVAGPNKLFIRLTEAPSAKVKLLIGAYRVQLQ

With “H3K9NleCTMS peptide (histone H3 peptide, cysteine at position 9 alkylated to cyclic tetramethylene sulfonium)” as the substance, how does the fold increase of the peptidyl conjugate yield against H3K9NleS+me2 read?
Its fold increase of the peptidyl conjugate yield against H3K9NleS+me2 is over 3 fold.
